Assay results: publication PMC7203112, “Structural basis for the complex DNA binding behavior of the plant stem cell regulator WUSCHEL”

T1: MBP-WUS-FL (Arabidopsis thaliana, UniProt Q9SB92 1-292)
T1 sequence: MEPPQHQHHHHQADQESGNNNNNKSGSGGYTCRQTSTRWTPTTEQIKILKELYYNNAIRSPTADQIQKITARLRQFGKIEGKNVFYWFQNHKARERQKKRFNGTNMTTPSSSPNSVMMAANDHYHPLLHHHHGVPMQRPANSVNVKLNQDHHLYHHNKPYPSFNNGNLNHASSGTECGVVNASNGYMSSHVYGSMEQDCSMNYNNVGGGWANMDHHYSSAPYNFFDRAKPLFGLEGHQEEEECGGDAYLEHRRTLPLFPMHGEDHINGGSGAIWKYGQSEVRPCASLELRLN

T2: WUS-HD R94K (Arabidopsis thaliana, UniProt Q9SB92 34-103, R94K)
T2 sequence: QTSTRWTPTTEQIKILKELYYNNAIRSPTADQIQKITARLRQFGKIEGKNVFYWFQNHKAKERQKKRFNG

T3: WUS-HD T35R (Arabidopsis thaliana, UniProt Q9SB92 34-103, T35R)
T3 sequence: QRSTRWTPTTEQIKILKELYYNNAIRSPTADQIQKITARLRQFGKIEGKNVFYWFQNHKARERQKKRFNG

T4: WUS-HD S36R (Arabidopsis thaliana, UniProt Q9SB92 34-103, S36R)
T4 sequence: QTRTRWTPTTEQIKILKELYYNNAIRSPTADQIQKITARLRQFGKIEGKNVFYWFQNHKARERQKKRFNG

T5: WUS-HD RRK (Arabidopsis thaliana, UniProt Q9SB92 34-103, T35R;S36R;R94K)
T5 sequence: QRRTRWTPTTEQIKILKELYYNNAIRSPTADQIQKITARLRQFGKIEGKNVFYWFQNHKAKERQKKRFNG

T6: WUS-HD F101A (Arabidopsis thaliana, UniProt Q9SB92 34-103, F101A)
T6 sequence: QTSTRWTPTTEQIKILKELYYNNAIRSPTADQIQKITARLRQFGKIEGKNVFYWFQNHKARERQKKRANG


Key:
[1] = target: T1, MBP-WUS-FL; assay: EMSA; MST: 20 mM Tris-HCl pH 8.0, 75 mM NaCl, 10 mM MgCl2, 0.05% Tween-20, 20 C, 50 nM YFP-WUS; ITC: same without Tween, 20 C; EMSA: 10 mM Tris-HCl pH 8.0, 75 mM NaCl, 50 ug/ml poly(dI-dC), 1 mM EDTA, 1 mM DTT, 5% glycerol; settings: protein: recombinant; tags: N-terminal His6-MBP; chain copies: 2; label: Cy5; blunt
[2] = target: T2, WUS-HD R94K; assay: EMSA; like wt; MST: 20 mM Tris-HCl pH 8.0, 75 mM NaCl, 10 mM MgCl2, 0.05% Tween-20, 20 C, 50 nM YFP-WUS; ITC: same without Tween, 20 C; EMSA: 10 mM Tris-HCl pH 8.0, 75 mM NaCl, 50 ug/ml poly(dI-dC), 1 mM EDTA, 1 mM DTT, 5% glycerol; settings: protein: recombinant; tags: none after TEV cleavage; label: Cy5; blunt
[3] = target: T3, WUS-HD T35R; assay: EMSA; predominantly monomer; MST: 20 mM Tris-HCl pH 8.0, 75 mM NaCl, 10 mM MgCl2, 0.05% Tween-20, 20 C, 50 nM YFP-WUS; ITC: same without Tween, 20 C; EMSA: 10 mM Tris-HCl pH 8.0, 75 mM NaCl, 50 ug/ml poly(dI-dC), 1 mM EDTA, 1 mM DTT, 5% glycerol; settings: protein: recombinant; tags: none after TEV cleavage; label: Cy5; blunt
[4] = target: T4, WUS-HD S36R; assay: as above; settings: protein: recombinant; tags: none after TEV cleavage; label: Cy5; blunt
[5] = target: T5, WUS-HD RRK; assay: EMSA; similar to T35R and S36R; MST: 20 mM Tris-HCl pH 8.0, 75 mM NaCl, 10 mM MgCl2, 0.05% Tween-20, 20 C, 50 nM YFP-WUS; ITC: same without Tween, 20 C; EMSA: 10 mM Tris-HCl pH 8.0, 75 mM NaCl, 50 ug/ml poly(dI-dC), 1 mM EDTA, 1 mM DTT, 5% glycerol; settings: protein: recombinant; tags: none after TEV cleavage; label: Cy5; blunt
[6] = target: T3, WUS-HD T35R; assay: EMSA; MST: 20 mM Tris-HCl pH 8.0, 75 mM NaCl, 10 mM MgCl2, 0.05% Tween-20, 20 C, 50 nM YFP-WUS; ITC: same without Tween, 20 C; EMSA: 10 mM Tris-HCl pH 8.0, 75 mM NaCl, 50 ug/ml poly(dI-dC), 1 mM EDTA, 1 mM DTT, 5% glycerol; settings: protein: recombinant; tags: none after TEV cleavage; label: Cy5; blunt
[7] = target: T4, WUS-HD S36R; assay: as above; settings: protein: recombinant; tags: none after TEV cleavage; label: Cy5; blunt
[8] = target: T6, WUS-HD F101A; assay: EMSA; predominantly monomer; probe called 2xTGAA; MST: 20 mM Tris-HCl pH 8.0, 75 mM NaCl, 10 mM MgCl2, 0.05% Tween-20, 20 C, 50 nM YFP-WUS; ITC: same without Tween, 20 C; EMSA: 10 mM Tris-HCl pH 8.0, 75 mM NaCl, 50 ug/ml poly(dI-dC), 1 mM EDTA, 1 mM DTT, 5% glycerol; settings: protein: recombinant; tags: none after TEV cleavage; label: Cy5; blunt

Row | Binder | Kd [1] [nM] | binding result [2] | binding result [3] | binding result [4] | binding result [5] | binding result [6] | binding result [7] | binding result [8]
1 | f_TAAT (dsDNA) DNA 1: CAATGTGTTAATGGGTTGTT DNA 2: AACAACCCATTAACACATTG | 3150 ± 260 | binds | binds | binds | binds |  |  | 
2 | f_TGAA (dsDNA) DNA 1: CATCGTCGTTCATTCAATGGG DNA 2: CCCATTGAATGAACGACGATG | 360 ± 60 |  |  |  |  | binds | binds | binds
